The text below walks through data of US20240018502A1.

The target in this assay is plasma purified human complement protein C3 (human) (UniProt P01024). Description: cell-based or functional assay.
Sequence of plasma purified human complement protein C3 (human) (P01024 23-667, chain 1 of 2): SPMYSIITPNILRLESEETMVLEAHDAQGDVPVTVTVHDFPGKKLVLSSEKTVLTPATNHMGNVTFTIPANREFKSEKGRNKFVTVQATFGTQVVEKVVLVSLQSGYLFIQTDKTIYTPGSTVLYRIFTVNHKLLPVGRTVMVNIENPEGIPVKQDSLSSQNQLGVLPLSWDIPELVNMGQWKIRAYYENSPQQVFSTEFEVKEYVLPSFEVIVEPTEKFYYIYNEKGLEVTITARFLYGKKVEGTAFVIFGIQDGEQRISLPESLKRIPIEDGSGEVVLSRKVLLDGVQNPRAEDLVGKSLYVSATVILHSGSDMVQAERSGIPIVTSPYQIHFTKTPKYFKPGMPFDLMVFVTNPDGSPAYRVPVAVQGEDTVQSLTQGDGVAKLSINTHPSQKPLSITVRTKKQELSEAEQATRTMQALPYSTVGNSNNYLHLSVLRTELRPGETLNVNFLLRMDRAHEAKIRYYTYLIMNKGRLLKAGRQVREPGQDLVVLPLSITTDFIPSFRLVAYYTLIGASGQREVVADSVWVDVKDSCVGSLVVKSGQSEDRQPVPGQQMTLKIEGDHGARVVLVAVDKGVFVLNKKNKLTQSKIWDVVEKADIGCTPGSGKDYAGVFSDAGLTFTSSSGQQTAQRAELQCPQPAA
Sequence of plasma purified human complement protein C3 (human) (P01024 672-1663, chain 2 of 2): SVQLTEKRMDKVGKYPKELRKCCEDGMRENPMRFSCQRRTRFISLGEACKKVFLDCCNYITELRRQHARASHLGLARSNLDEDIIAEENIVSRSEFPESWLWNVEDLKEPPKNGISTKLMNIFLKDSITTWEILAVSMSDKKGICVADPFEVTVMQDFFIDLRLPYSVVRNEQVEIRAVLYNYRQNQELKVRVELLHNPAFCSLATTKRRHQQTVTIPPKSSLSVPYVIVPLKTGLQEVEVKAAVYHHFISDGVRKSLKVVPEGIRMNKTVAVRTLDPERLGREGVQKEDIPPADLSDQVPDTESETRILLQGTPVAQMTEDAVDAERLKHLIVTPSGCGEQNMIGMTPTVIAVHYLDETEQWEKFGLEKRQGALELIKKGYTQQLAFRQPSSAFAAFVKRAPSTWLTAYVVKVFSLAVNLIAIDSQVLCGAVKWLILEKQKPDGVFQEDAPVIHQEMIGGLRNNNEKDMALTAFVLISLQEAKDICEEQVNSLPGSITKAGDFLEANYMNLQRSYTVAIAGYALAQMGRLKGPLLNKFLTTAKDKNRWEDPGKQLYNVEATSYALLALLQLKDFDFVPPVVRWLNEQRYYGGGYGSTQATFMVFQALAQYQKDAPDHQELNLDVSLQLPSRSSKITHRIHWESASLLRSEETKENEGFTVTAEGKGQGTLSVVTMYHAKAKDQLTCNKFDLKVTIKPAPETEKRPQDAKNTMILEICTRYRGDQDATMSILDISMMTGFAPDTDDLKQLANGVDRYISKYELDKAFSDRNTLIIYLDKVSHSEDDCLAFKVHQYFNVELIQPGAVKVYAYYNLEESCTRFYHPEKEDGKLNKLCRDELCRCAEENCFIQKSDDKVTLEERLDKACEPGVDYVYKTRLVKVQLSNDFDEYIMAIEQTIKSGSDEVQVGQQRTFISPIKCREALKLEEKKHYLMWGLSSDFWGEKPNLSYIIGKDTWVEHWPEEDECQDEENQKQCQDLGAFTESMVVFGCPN

B1: MTSP-1 H40R/I41H/K86R/F97D/K110R/C122S/K134R/G151N/K157R/K224R/K239R (enzyme)
chain: VVGGTDADEGEWPWQVSLHALGQGRHCGASLISPNWLVSAAHCYIDDRGFRYSDPTQWTAFLGLHDQSQRSAPGVQERRLRRIISHPFFNDDTFDYDIALLELERPAEYSSMVRPISLPDASHVFPAGRAIWVTGWGHTQYGGTNALILQRGEIRVINQTTCENLLPQQITPRMMCVGFLSGGVDSCQGDSGGPLSSVEADGRIFQAGVVSWGDGCAQRNRPGVYTRLPLFRDWIRENTGV
Regarding B1, the EC50 of hC3 cleavage was 304 nM.

B2: MTSP-1 I41R/ins97aE/F97T/T98G/F99L/C122S/G151E/Q175L/Q192E (enzyme)
chain: VVGGTDADEGEWPWQVSLHALGQGHRCGASLISPNWLVSAAHCYIDDRGFRYSDPTQWTAFLGLHDQSQRSAPGVQERRLKRIISHPFFNDTEGLDYDIALLELEKPAEYSSMVRPISLPDASHVFPAGKAIWVTGWGHTQYGGTEALILQKGEIRVINQTTCENLLPQLITPRMMCVGFLSGGVDSCEGDSGGPLSSVEADGRIFQAGVVSWGDGCAQRNKPGVYTRLPLFRDWIKENTGV
As to B2, the EC50 of hC3 cleavage worked out at 126 nM.

B3: MTSP-1 I41R/ins97aE/F97T/T98G/F99L/C122S/G151D/Q175T/Q192D (enzyme)
chain: VVGGTDADEGEWPWQVSLHALGQGHRCGASLISPNWLVSAAHCYIDDRGFRYSDPTQWTAFLGLHDQSQRSAPGVQERRLKRIISHPFFNDTEGLDYDIALLELEKPAEYSSMVRPISLPDASHVFPAGKAIWVTGWGHTQYGGTDALILQKGEIRVINQTTCENLLPQTITPRMMCVGFLSGGVDSCDGDSGGPLSSVEADGRIFQAGVVSWGDGCAQRNKPGVYTRLPLFRDWIKENTGV
In the case of B3, the EC50 of hC3 cleavage stood at 1620 nM.

B4: MTSP-1 I41R/ins97aE/F97T/T98G/F99L/C122S/G151D/Q175T/Q192E (enzyme)
chain: VVGGTDADEGEWPWQVSLHALGQGHRCGASLISPNWLVSAAHCYIDDRGFRYSDPTQWTAFLGLHDQSQRSAPGVQERRLKRIISHPFFNDTEGLDYDIALLELEKPAEYSSMVRPISLPDASHVFPAGKAIWVTGWGHTQYGGTDALILQKGEIRVINQTTCENLLPQTITPRMMCVGFLSGGVDSCEGDSGGPLSSVEADGRIFQAGVVSWGDGCAQRNKPGVYTRLPLFRDWIKENTGV
Consider B4, for which the EC50 of hC3 cleavage came out at 743 nM.

B5: MTSP-1 K86R/F97T/ins97aE/T98G/F99L/K110R/C122S/K134R/K157R/Q175L/Q192E/K224R/K239R (enzyme)
chain: VVGGTDADEGEWPWQVSLHALGQGHICGASLISPNWLVSAAHCYIDDRGFRYSDPTQWTAFLGLHDQSQRSAPGVQERRLRRIISHPFFNDTEGLDYDIALLELERPAEYSSMVRPISLPDASHVFPAGRAIWVTGWGHTQYGGTGALILQRGEIRVINQTTCENLLPQLITPRMMCVGFLSGGVDSCEGDSGGPLSSVEADGRIFQAGVVSWGDGCAQRNRPGVYTRLPLFRDWIRENTGV
Take B5: the EC50 of hC3 cleavage is 253 nM.

B6: MTSP-1 I41R/ins97aE/F97T/T98G/F99L/C122S/G151D/Q175L/Q192E (enzyme)
chain: VVGGTDADEGEWPWQVSLHALGQGHRCGASLISPNWLVSAAHCYIDDRGFRYSDPTQWTAFLGLHDQSQRSAPGVQERRLKRIISHPFFNDTEGLDYDIALLELEKPAEYSSMVRPISLPDASHVFPAGKAIWVTGWGHTQYGGTDALILQKGEIRVINQTTCENLLPQLITPRMMCVGFLSGGVDSCEGDSGGPLSSVEADGRIFQAGVVSWGDGCAQRNKPGVYTRLPLFRDWIKENTGV
B6: the EC50 of hC3 cleavage came to 163 nM.

B7: MTSP-1 H40P/I41R/ins97aE/F97T/T98G/F99L/C122S/G151D/Q175L/Q192E (enzyme)
chain: VVGGTDADEGEWPWQVSLHALGQGPRCGASLISPNWLVSAAHCYIDDRGFRYSDPTQWTAFLGLHDQSQRSAPGVQERRLKRIISHPFFNDTEGLDYDIALLELEKPAEYSSMVRPISLPDASHVFPAGKAIWVTGWGHTQYGGTDALILQKGEIRVINQTTCENLLPQLITPRMMCVGFLSGGVDSCEGDSGGPLSSVEADGRIFQAGVVSWGDGCAQRNKPGVYTRLPLFRDWIKENTGV
B7 yielded an EC50 of hC3 cleavage of 212 nM.

B8: MTSP-1 I41R/ins97aE/F97T/T98G/F99L/C122S/G151E/Q175T/Q192D (enzyme)
chain: VVGGTDADEGEWPWQVSLHALGQGHRCGASLISPNWLVSAAHCYIDDRGFRYSDPTQWTAFLGLHDQSQRSAPGVQERRLKRIISHPFFNDTEGLDYDIALLELEKPAEYSSMVRPISLPDASHVFPAGKAIWVTGWGHTQYGGTEALILQKGEIRVINQTTCENLLPQTITPRMMCVGFLSGGVDSCDGDSGGPLSSVEADGRIFQAGVVSWGDGCAQRNKPGVYTRLPLFRDWIKENTGV
In turn, B8 showed an EC50 of hC3 cleavage of 1770 nM.

B9: MTSP-1 H40P/I41R/ins97aE/F97T/T98G/F99L/C122S/Q175L/Q192E (enzyme)
chain: VVGGTDADEGEWPWQVSLHALGQGPRCGASLISPNWLVSAAHCYIDDRGFRYSDPTQWTAFLGLHDQSQRSAPGVQERRLKRIISHPFFNDTEGLDYDIALLELEKPAEYSSMVRPISLPDASHVFPAGKAIWVTGWGHTQYGGTGALILQKGEIRVINQTTCENLLPQLITPRMMCVGFLSGGVDSCEGDSGGPLSSVEADGRIFQAGVVSWGDGCAQRNKPGVYTRLPLFRDWIKENTGV
Take B9: the EC50 of hC3 cleavage amounted to 442 nM.

B10: MTSP-1 I41R/F99L/C122S/Q192G (enzyme)
chain: VVGGTDADEGEWPWQVSLHALGQGHRCGASLISPNWLVSAAHCYIDDRGFRYSDPTQWTAFLGLHDQSQRSAPGVQERRLKRIISHPFFNDFTLDYDIALLELEKPAEYSSMVRPISLPDASHVFPAGKAIWVTGWGHTQYGGTGALILQKGEIRVINQTTCENLLPQQITPRMMCVGFLSGGVDSCGGDSGGPLSSVEADGRIFQAGVVSWGDGCAQRNKPGVYTRLPLFRDWIKENTGV
B10: the EC50 of hC3 cleavage worked out at 53.8 nM.

B11: MTSP-1 H40P/I41R/F99L/C122S/G151K/Q192G (enzyme)
chain: VVGGTDADEGEWPWQVSLHALGQGPRCGASLISPNWLVSAAHCYIDDRGFRYSDPTQWTAFLGLHDQSQRSAPGVQERRLKRIISHPFFNDFTLDYDIALLELEKPAEYSSMVRPISLPDASHVFPAGKAIWVTGWGHTQYGGTKALILQKGEIRVINQTTCENLLPQQITPRMMCVGFLSGGVDSCGGDSGGPLSSVEADGRIFQAGVVSWGDGCAQRNKPGVYTRLPLFRDWIKENTGV
As to B11, the EC50 of hC3 cleavage was determined as 96.1 nM.

B12: MTSP-1 H40P/I41R/F99L/C122S/Q192G (enzyme)
chain: VVGGTDADEGEWPWQVSLHALGQGPRCGASLISPNWLVSAAHCYIDDRGFRYSDPTQWTAFLGLHDQSQRSAPGVQERRLKRIISHPFFNDFTLDYDIALLELEKPAEYSSMVRPISLPDASHVFPAGKAIWVTGWGHTQYGGTGALILQKGEIRVINQTTCENLLPQQITPRMMCVGFLSGGVDSCGGDSGGPLSSVEADGRIFQAGVVSWGDGCAQRNKPGVYTRLPLFRDWIKENTGV
Molecule B12 came in with an EC50 of hC3 cleavage of 62.4 nM.

B13: MTSP-1 H40R/I41H/F99L/C122S/G151E/Q192G (enzyme)
chain: VVGGTDADEGEWPWQVSLHALGQGRHCGASLISPNWLVSAAHCYIDDRGFRYSDPTQWTAFLGLHDQSQRSAPGVQERRLKRIISHPFFNDFTLDYDIALLELEKPAEYSSMVRPISLPDASHVFPAGKAIWVTGWGHTQYGGTEALILQKGEIRVINQTTCENLLPQQITPRMMCVGFLSGGVDSCGGDSGGPLSSVEADGRIFQAGVVSWGDGCAQRNKPGVYTRLPLFRDWIKENTGV
As for B13, the EC50 of hC3 cleavage amounted to 829 nM.

B14: MTSP-1 K86R/K110R/C122S/K134R/K157R/K224R/K239R (enzyme)
chain: VVGGTDADEGEWPWQVSLHALGQGHICGASLISPNWLVSAAHCYIDDRGFRYSDPTQWTAFLGLHDQSQRSAPGVQERRLRRIISHPFFNDFTFDYDIALLELERPAEYSSMVRPISLPDASHVFPAGRAIWVTGWGHTQYGGTGALILQRGEIRVINQTTCENLLPQQITPRMMCVGFLSGGVDSCQGDSGGPLSSVEADGRIFQAGVVSWGDGCAQRNRPGVYTRLPLFRDWIRENTGV
Molecule B14 displayed an EC50 of hC3 cleavage of 17.3 nM.

B15: MTSP-1 H40R/I41H/F97D/F99L/C122S/Q192G/D217I/K224S (enzyme)
chain: VVGGTDADEGEWPWQVSLHALGQGRHCGASLISPNWLVSAAHCYIDDRGFRYSDPTQWTAFLGLHDQSQRSAPGVQERRLKRIISHPFFNDDTLDYDIALLELEKPAEYSSMVRPISLPDASHVFPAGKAIWVTGWGHTQYGGTGALILQKGEIRVINQTTCENLLPQQITPRMMCVGFLSGGVDSCGGDSGGPLSSVEADGRIFQAGVVSWGIGCAQRNSPGVYTRLPLFRDWIKENTGV
B15 came in with an EC50 of hC3 cleavage of 19.3 nM.

B16: MTSP-1 H40R/I41H/F99L/C122S/G151K/Q192G (enzyme)
chain: VVGGTDADEGEWPWQVSLHALGQGRHCGASLISPNWLVSAAHCYIDDRGFRYSDPTQWTAFLGLHDQSQRSAPGVQERRLKRIISHPFFNDFTLDYDIALLELEKPAEYSSMVRPISLPDASHVFPAGKAIWVTGWGHTQYGGTKALILQKGEIRVINQTTCENLLPQQITPRMMCVGFLSGGVDSCGGDSGGPLSSVEADGRIFQAGVVSWGDGCAQRNKPGVYTRLPLFRDWIKENTGV
Consider B16, for which the EC50 of hC3 cleavage was 1520 nM.

B17: MTSP-1 H40R/I41H/F97D/F99L/C122S/Q175R/Q192G/D217E/K224R (enzyme)
chain: VVGGTDADEGEWPWQVSLHALGQGRHCGASLISPNWLVSAAHCYIDDRGFRYSDPTQWTAFLGLHDQSQRSAPGVQERRLKRIISHPFFNDDTLDYDIALLELEKPAEYSSMVRPISLPDASHVFPAGKAIWVTGWGHTQYGGTGALILQKGEIRVINQTTCENLLPQRITPRMMCVGFLSGGVDSCGGDSGGPLSSVEADGRIFQAGVVSWGEGCAQRNRPGVYTRLPLFRDWIKENTGV
B17 showed an EC50 of hC3 cleavage of 31.2 nM.

B18: MTSP-1 H40R/I41H/F97D/F99L/C122S/Q192G/D217K/K224A (enzyme)
chain: VVGGTDADEGEWPWQVSLHALGQGRHCGASLISPNWLVSAAHCYIDDRGFRYSDPTQWTAFLGLHDQSQRSAPGVQERRLKRIISHPFFNDDTLDYDIALLELEKPAEYSSMVRPISLPDASHVFPAGKAIWVTGWGHTQYGGTGALILQKGEIRVINQTTCENLLPQQITPRMMCVGFLSGGVDSCGGDSGGPLSSVEADGRIFQAGVVSWGKGCAQRNAPGVYTRLPLFRDWIKENTGV
B18 displayed an EC50 of hC3 cleavage of 23.4 nM.

B19: MTSP-1 H40R/I41H/F97D/C122S/Q175R/Q192G/D217I/K224Q (enzyme)
chain: VVGGTDADEGEWPWQVSLHALGQGRHCGASLISPNWLVSAAHCYIDDRGFRYSDPTQWTAFLGLHDQSQRSAPGVQERRLKRIISHPFFNDDTFDYDIALLELEKPAEYSSMVRPISLPDASHVFPAGKAIWVTGWGHTQYGGTGALILQKGEIRVINQTTCENLLPQRITPRMMCVGFLSGGVDSCGGDSGGPLSSVEADGRIFQAGVVSWGIGCAQRNQPGVYTRLPLFRDWIKENTGV
Regarding B19, the EC50 of hC3 cleavage came to 93.1 nM.

B20: MTSP-1 H40R/I41H/F97D/F99L/C122S/Q175R/Q192G/D217H/K224S (enzyme)
chain: VVGGTDADEGEWPWQVSLHALGQGRHCGASLISPNWLVSAAHCYIDDRGFRYSDPTQWTAFLGLHDQSQRSAPGVQERRLKRIISHPFFNDDTLDYDIALLELEKPAEYSSMVRPISLPDASHVFPAGKAIWVTGWGHTQYGGTGALILQKGEIRVINQTTCENLLPQRITPRMMCVGFLSGGVDSCGGDSGGPLSSVEADGRIFQAGVVSWGHGCAQRNSPGVYTRLPLFRDWIKENTGV
On to B20, for which the EC50 of hC3 cleavage was 45.2 nM.
